US8632989B1, “Mutant insulin degrading enzyme and methods of use” (University of Kentucky Research Foundation, priority 2011, dated 2014)

Legend:
[1] = target: T1, Abz-GGFLRKHGQ-EDDnp (Rattus norvegicus, UniProt P35559); experiment: Activation by bradykinin, wild type rIDE and distal site mutants; assay type: biochemical; settings: 10 μM Abz-GGFLRKHGQ-EDDnp as substrate
T1 construct: begin at methionine 42, which is believed to be the in vivo start site, and extend through the native C-terminal residue leucine 1019; hexahistidine with linker holding a TEV protease site (N, cleaved yes); made in house; host or cells: SF9 insect cells (baculovirus, pFastBac HTb)
T1 sequence (P35559 42-1019): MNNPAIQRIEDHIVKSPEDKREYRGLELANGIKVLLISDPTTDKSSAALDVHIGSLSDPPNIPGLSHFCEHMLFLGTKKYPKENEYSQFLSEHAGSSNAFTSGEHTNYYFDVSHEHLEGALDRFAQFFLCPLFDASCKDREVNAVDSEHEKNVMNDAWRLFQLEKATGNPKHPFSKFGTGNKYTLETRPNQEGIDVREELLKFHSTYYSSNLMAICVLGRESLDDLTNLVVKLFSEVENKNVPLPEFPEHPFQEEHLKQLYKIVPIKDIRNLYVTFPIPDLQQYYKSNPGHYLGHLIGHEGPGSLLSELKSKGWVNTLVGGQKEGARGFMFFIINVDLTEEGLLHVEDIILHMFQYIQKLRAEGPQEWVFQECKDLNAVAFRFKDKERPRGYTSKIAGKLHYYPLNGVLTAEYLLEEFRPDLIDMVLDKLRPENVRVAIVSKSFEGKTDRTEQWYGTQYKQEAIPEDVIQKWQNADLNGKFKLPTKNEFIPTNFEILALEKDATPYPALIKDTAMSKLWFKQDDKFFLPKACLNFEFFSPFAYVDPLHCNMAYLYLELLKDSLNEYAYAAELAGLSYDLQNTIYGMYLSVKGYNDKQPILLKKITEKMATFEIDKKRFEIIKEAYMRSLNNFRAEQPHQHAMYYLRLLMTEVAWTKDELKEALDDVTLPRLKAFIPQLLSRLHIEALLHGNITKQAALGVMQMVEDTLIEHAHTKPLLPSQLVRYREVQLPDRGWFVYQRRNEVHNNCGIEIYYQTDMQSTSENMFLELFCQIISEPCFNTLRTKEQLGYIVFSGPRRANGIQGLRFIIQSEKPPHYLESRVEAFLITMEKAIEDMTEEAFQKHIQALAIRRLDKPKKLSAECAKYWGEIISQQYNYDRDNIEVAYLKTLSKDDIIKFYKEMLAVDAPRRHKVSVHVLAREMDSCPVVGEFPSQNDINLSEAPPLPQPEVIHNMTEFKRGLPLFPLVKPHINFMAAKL
Description: (§1) FIG. 17. Effects of distal site mutations. (A) Comparison of the kinetics of wild type IDE with the distal site mutants. Activity was measured with varying amounts of Abz-[…]-EDDnp (SEQ ID NO:3) substrate as indicated. Either hyperbolic (Michaelis-Menten equation) or sigmoidal curves (Hill equation) were fit to the data. (B) Effect of bradykinin on the activity of wild type IDE and the distal site mutants. (C) Activation of wild type IDE and distal site mutants by ATP. Relative activity is the fold activation above the level of the wild type enzyme alone.
The activity of IDE was measured by following the increase in fluorescence upon hydrolysis at the L-R bond of the fluorogenic peptide Abz-[…]-EDDnp (SEQ ID NO:3) on a SpectraMax Gemini XS fluorescence plate reader using an excitation wavelength of 318 nm and emission wavelength of 419 nm. Reactions were carried out in 200 μl volumes containing 50 mM Tris-HCl, pH 7.4, 1.92 μg of wild type rIDE, 4.6 μg of rIDE-V360S, 4.3 μg rIDE-I374S, or 1.63 μg of rIDE-Y609F. For measurements of activation by bradykinin, IDE activity was determined with 10 μM Abz-[…]-EDDnp (SEQ ID NO:3) as substrate in 50 mM Tris-HCl buffer, pH 7.4. The amount of protein was 0.5 μg for wild type rIDE and 5 μg for each of the IDE distal-site mutants. Data were analyzed using Softmax 4.0 (Molecular Devices) and kinetic parameters calculated with Prism (Graphpad Software). […]

[2] = tested on: Abz-GGFLRKHGQ-EDDnp; experiment: Enzyme activity assay, kinetics of wild type rIDE and distal site mutants with fluorogenic substrate; assay type: biochemical
Description: as §1
The activity of IDE was measured by following the increase in fluorescence upon hydrolysis at the L-R bond of the fluorogenic peptide Abz-[…]-EDDnp (SEQ ID NO:3) on a SpectraMax Gemini XS fluorescence plate reader using an excitation wavelength of 318 nm and emission wavelength of 419 nm. Reactions were carried out in 200 μl volumes containing 50 mM Tris-HCl, pH 7.4, 1.92 μg of wild type rIDE, 4.6 μg of rIDE-V360S, 4.3 μg rIDE-I374S, or 1.63 μg of rIDE-Y609F. For measurements of activation by bradykinin, IDE activity was determined with 10 μM Abz-[…]-EDDnp (SEQ ID NO:3) as substrate in 50 mM Tris-HCl buffer, pH 7.4. The amount of protein was 0.5 μg for wild type rIDE and 5 μg for each of the IDE distal-site mutants. Data were analyzed using Softmax 4.0 (Molecular Devices) and kinetic parameters calculated with Prism (Graphpad Software). […] Under these assay conditions, both wild type and mutant rIDE are almost completely dimeric.

[3] = target: T1, Abz-GGFLRKHGQ-EDDnp; settings: reference [15]; cited from earlier work
[4] = tested on: Abz-GGFLRKHGQ-EDDnp; experiment: Enzyme activity assay, kinetics of IDE and ATP binding site mutants with fluorogenic substrate; assay type: biochemical; settings: rat IDE, Abz-GGFLRKHGQ-EDDnp as substrate
Description: Reactions were conducted in 50 mM Tris-HCl, pH 7.4.
IDE activity was determined by measuring the increase in fluorescence that occurs when the enzyme cleaves the internally quenched fluorogenic substrate Abz-[…]-EDDnp (SEQ ID NO:3) at the R—K bond (Song et al., Journal of Biologial Chemistry 276, 1152-1155 (2001)). The reaction was followed on a SpectraMax Gemini XS fluorescence plate reader using an excitation and emission wavelengths of 318 nm and 419 nm, respectively. Initial velocities were determined using SoftMax Pro 4.0 and kinetic constants calculated using GraphPad Prism 4.0. ATPase activity was measured by following Pi release with acid-molybdate as described by Harder et al. (Harder et al., Biochemical Journal 298 (Pt 2), 395-401 (1994)).

B1: IDE: Native rat insulin degrading enzyme (SEQ ID NO:1), expressed as hexahistidine fusion protein in Sf9 insect cells (protein, listed as Rattus norvegicus)
chain: MRNGLVWLLHPALPSTLHSILGARPPPVKRLCGFPKQIYSTMNNPAIQRIEDHIVKSPEDKREYRGLELANGIKVLLISDPTTDKSSAALDVHIGSLSDPPNIPGLSHFCEHMLFLGTKKYPKENEYSQFLSEHAGSSNAFTSGEHTNYYFDVSHEHLEGALDRFAQFFLCPLFDASCKDREVNAVDSEHEKNVMNDAWRLFQLEKATGNPKHPFSKFGTGNKYTLETRPNQEGIDVREELLKFHSTYYSSNLMAICVLGRESLDDLTNLVVKLFSEVENKNVPLPEFPEHPFQEEHLKQLYKIVPIKDIRNLYVTFPIPDLQQYYKSNPGHYLGHLIGHEGPGSLLSELKSKGWVNTLVGGQKEGARGFMFFIINVDLTEEGLLHVEDIILHMFQYIQKLRAEGPQEWVFQECKDLNAVAFRFKDKERPRGYTSKIAGKLHYYPLNGVLTAEYLLEEFRPDLIDMVLDKLRPENVRVAIVSKSFEGKTDRTEQWYGTQYKQEAIPEDVIQKWQNADLNGKFKLPTKNEFIPTNFEILALEKDATPYPALIKDTAMSKLWFKQDDKFFLPKACLNFEFFSPFAYVDPLHCNMAYLYLELLKDSLNEYAYAAELAGLSYDLQNTIYGMYLSVKGYNDKQPILLKKITEKMATFEIDKKRFEIIKEAYMRSLNNFRAEQPHQHAMYYLRLLMTEVAWTKDELKEALDDVTLPRLKAFIPQLLSRLHIEALLHGNITKQAALGVMQMVEDTLIEHAHTKPLLPSQLVRYREVQLPDRGWFVYQRRNEVHNNCGIEIYYQTDMQSTSENMFLELFCQIISEPCFNTLRTKEQLGYIVFSGPRRANGIQGLRFIIQSEKPPHYLESRVEAFLITMEKAIEDMTEEAFQKHIQALAIRRLDKPKKLSAECAKYWGEIISQQYNYDRDNIEVAYLKTLSKDDIIKFYKEMLAVDAPRRHKVSVHVLAREMDSCPVVGEFPSQNDINLSEAPPLPQPEVIHNMTEFKRGLPLFPLVKPHINFMAAKL
modifications: hexahistidine tag; wild-type Insulin Degrading Enzyme (IDE) from rat
[1]
  Heterotropic activation with bradykinin: approximately 4 fold
[2]; Abz-GGFLRKHGQ-EDDnp substrate
  Specific activity: 8,131 nmol/min/mg
[2]; rat IDE, Abz-GGFLRKHGQ-EDDnp as substrate
  Km: 0.0159 ± 0.00119 mM
[2]; rat IDE, Abz-GGFLRKHGQ-EDDnp as substrate, 50 mM Tris-HCl, pH 7.4
  Vmax: 35.5 ± 11.6 nmol/min/mg
[2]; rat IDE, Abz-GGFLRKHGQ-EDDnp as substrate, listed as Wild Type
  Hill coefficient: 1.8 ± 0.16
[2]; rat IDE, Abz-GGFLRKHGQ-EDDnp as substrate, listed as wild type enzyme
  Hill coefficient: 1.80
[3]
  increase of cleavage rate of Abz-GGFLRKHGQ-EDDnp by ATP: more than 40 fold
[4]
  Hill coefficient: 2.1 ± 0.3
  Km: 9.6 ± 0.7 mM
  kcat: 0.0867 ± 0.0033 s⁻¹
[4]; 50 mM Tris-HCl, pH 7.4
  Vmax: 47.2 ± 1.7 nmol/min/mg
